Test system: MS2 coat protein
Assay: apparent KD of MS2 coat protein; designed switch direction (-1 OFF switch, 1 ON switch): 1; higher = weaker reporter binding
In short: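 Each step of the titration lasted 0.8–1.5 h at the lowest concentration and 10–20 min at the highest. The protein, SNAP-549-labelled MS2 coat protein, went from 0.7 or 1.5 nM doubling to 3 µM over RNA switches transcribed on Illumina chips by stalled E. coli RNA polymerase. Normalised cluster fluorescence was curve-fitted, and the per-design median over clusters is given as apparent KD.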

[1] = input ligand: microRNA oligo, concentration not stated
[2] = Eterna round: R95, input ligand: FMN 200 uM
[3] = Eterna round: R95, input ligand: microRNA oligo, concentration not stated
[4] = Eterna round: R95, input ligand: none

Sequence	apparent KD of MS2 coat protein (input ligand: FMN 200 uM) [nM]	apparent KD of MS2 coat protein [1] [nM]	apparent KD of MS2 coat protein (input ligand: none) [nM]	apparent KD of MS2 coat protein [2] [nM]	apparent KD of MS2 coat protein [3] [nM]	apparent KD of MS2 coat protein [4] [nM]
UUGAAGAAUUAAGGAUAUCGAGUACAUAUGUUAAACAUGAGGAUCACCCAUGUGGGUUGCGGUAUCGAGAAGGUAAAUUACAAG [JL SSNG2 1.42] (Eterna round: R96, puzzle: Same State NG 2)	30.2	25.6	36.5	–	–	–
UCUUGGUUUUUGCUCGUUUUUUGUGUUGAACAUGAGGAUCACCCAUGUAUUGUACGGUCCAGUUUGGUAAUGGUCCA [JMF 8] (puzzle: Sensor for hsa-mir-208a)	–	–	–	31.2	20.5	35
UCUUGGUUUUUGCUCGUUUUUUGUGUUGAACAUGAGGAUCACCCAUGUAUUGUACGGUCCAAUUUAGUAAUGGUCCG [JMF 26] (puzzle: Sensor for hsa-mir-208a)	–	–	–	25.4	13.2	23.6
UGAAUAGUUACAGGAUAUGAGCCGAAAAUUGGGUCAGAAGGGUGGGUGUUUUGCGCUAUGUGCUACAUGAGGAUCACCCAUGUU [SameState NG1 #34] (Eterna round: R96, puzzle: Same State NG 1)	888	268	338	–	–	–
AUAAAACAUGAGGAUCACCCAUGUCAACAAAGUCGAGGAUAUGGGCAAAUAAAAUAAGAACCAGAAGGCGAAUAAC [salish99_SS1_r3_003] (puzzle: Same State 1)	–	–	–	–	339	–
ACGCAGCUGGGUGAGGAUAUUGGUGGUACAACAUGAGGAUCACCCAUGUCCGAAGCUCGGACCCUCGAGAAGGCGCCCGGCUGCG [Soinraesar Omei Mod 5] (puzzle: Same State 2)	–	–	–	122	17.2	62
GUGGCUGCCACAGGAUAUACCGUGUAAUUCACGGUAGAAGGGUGAAGCACUCAAAAGAGUGCUAACAUGAGGAUCACCCAUGUG [Quzaon] (Eterna round: R96, puzzle: Same State NG 1)	1040	170	290	–	–	–
GUGCUCGUGUAAGGAUAUGCAGCCGUUUCGGCUGCAGAAGGUACUAUAAUACAUGAGGAUCACCCAUGUCUCUAUAAUUUGGUG [salish99_SSNG1_r04_904] (Eterna round: R96, puzzle: Same State NG 1)	–	107	–	–	–	–
GCUAGAAUUAAUGCCUACAUGAGGAUCACCCAUGUAUGUAGGCAGGAUAUCGUUUGCAAAGCAAACGAGAAGGGCCUUACUAGC [Mat - Same State NG 3 - JL Mod - D28] (Eterna round: R96, puzzle: Same State NG 3)	21.9	46.1	63.7	–	–	–
AGCUAGUACCGAGGAUAUACAUACAUGAGGAUCACCCAUGUAUACAUGAAAUAAUGAGACUACAUGUAGAAGGCGGUACUAGCA [Mat - Same State NG 2 - JL mod - D45] (Eterna round: R96, puzzle: Same State NG 2)	16.9	43.5	63.4	–	–	–
GGGCCAGCCUGUGCUGGGCUUUAGCAUGUACAUGAGGAUCACCCAUGUCGUGUACAUGCUUUUUGCUCGUCUUUAAA [Photon Torp-07] (puzzle: Sensor for hsa-mir-208a)	–	–	–	70.5	22.5	100
GGUCCAGCCUGAGCUGGACAAAAGCAUGUACAUGAGGAUCACCCAUGUUCAUGUACAAGCUUUUUGCUCGUCUUGCA [salish99_208a_r3_110x] (puzzle: Sensor for hsa-mir-208a)	–	–	–	639	15.5	706
UGUAUACAUGAGGAUCACCCAUGUCAACGUAGUCGAGGAUAUGGGCAGCCGUGAGGCGUACCAGAAGGCGAAGAGG [JL-ss1-3.05 ViennaUCT mod] (puzzle: Same State 1)	–	–	–	27.6	95.3	172
UGUUGUAUUACAGGAUAUCUAGUGUUUUUAUUUAGAGAAGGGUAUUCACAUGAGGAUCACCCAUGUAUAUACGAGGAAGUUGUG [JMF's solution 34] (Eterna round: R96, puzzle: Same State NG 1)	–	43	–	–	–	–
AUUUCAGUCAGAGGAUAUUGUUUAUCUCUAUUGCAAGAAGGCUGAUCUUACUACCCACUUAUGAAACAUGAGGAUCACCCAUGU [JR_SSNG1_Sub017] (Eterna round: R96, puzzle: Same State NG 1)	–	15.7	–	–	–	–
UGGUACAUGGGAGGAUAUCUCAUGGAGACAUGAGGAUCACCCAUGUAGAUGGGCGGUAACGCCGGAGAGAAGGCCCAUGUACCU [JL SSNG1 3.70] (Eterna round: R96, puzzle: Same State NG 2)	29.2	41.6	58.1	–	–	–

Sequence	apparent KD of MS2 coat protein (input ligand: FMN 200 uM) [nM]	apparent KD of MS2 coat protein [1] [nM]	apparent KD of MS2 coat protein (input ligand: none) [nM]	apparent KD of MS2 coat protein [2] [nM]	apparent KD of MS2 coat protein [3] [nM]	apparent KD of MS2 coat protein [4] [nM]
AUAAGGCAAGCUUUUUUCUCGUUGUGUAAACAUGAGGAUCACCCAUGUGCCCACCCUGGAUCUUUGGAUCGCAGAAC [Mais] (puzzle: Sensor for hsa-mir-208a)	–	–	–	40.8	17.5	40.8
ACGCUAAAUGGAGGAUAUGGAGCCUUAUUGGCUCCAGAAGGUCAAAACAUGAGGAUCACCCAUGUGCGGUGGUCUAAUGACCAC [Eli NG1ss - 47] (Eterna round: R96, puzzle: Same State NG 1)	68	99.2	169	–	–	–
GUUACAUGAGGAUCACCCAUGUAUGUGUGGGAGUAAGUGUCUUAGGAUAUCUAUCAAUUAAUUUAAGAGAAGGAAGAUUGUUGU [JMF's solution 89] (Eterna round: R96, puzzle: Same State NG 3)	116	94	110	–	–	–
CGUAGGUAGCUGGAGGAUAUUCGAGUGGUAACAUGAGGAUCACCCAUGUGGAGAGAGGAACAUGAGGAGAAGGCUAGCUGCCUGC [JL-ss2-3.19 JL mod] (puzzle: Same State 2)	–	–	–	8.36	21.7	16.7
UAGUUUUAGCGAGGAUAUCGUAUGUUUAAUUUUUUAUAUUGUUUACAUGAGGAUCACCCAUGUUACGAGAAGGCGCAUGGGAUU [JR_SSNG2_Sub080] (Eterna round: R96, puzzle: Same State NG 2)	–	273	–	–	–	–
UAGGCUGGUACAGGAUAUGCCGUAUUUUAGUCGGCAGAAGGGUGCUCACAUGAGGAUCACCCAUGUAUACAGCCAGAUCAUGUU [MOD JMF Solution 2] (Eterna round: R96, puzzle: Same State NG 1)	132	107	43.2	–	–	–
CAGCGCUGUCGAGAGGAUAUGCGGUGAUGGACAUGAGGAUCACCCAUGUUAGCGAUGGCAUUACGGUAGAAGGCUCUACAGCUGC [Soteed - 4] (puzzle: Same State 2)	–	–	–	–	26	–
AUUAAUUAUGCAGGAUAUGAUUAACAUGAGGAUCACCCAUGUGGUGUUGUGAGUAAGGAGAGUGAUCAGAAGGGCAUUUUUUUU [JMF's solution 66] (Eterna round: R96, puzzle: Same State NG 2)	652	524	449	–	–	–
AUAAAACAUGAGGAUCACCCAUGUAGACGGAGAAACGUCACAUAGGAUAUAGUCAGCGGCGUUGACUAGAAGGGUGGUAGAAAA [Qubeedbi] (Eterna round: R96, puzzle: Same State NG 3)	286	97.4	251	–	–	–
GUAGCAUACCGAGGAUAUUCAUAUAAUAACAUGAGGAUCACCCAUGUAUAUAGGCGAAAGCCUUGGGAGAAGGCGGAAUGCUAC [Xeonanis - 20 Mod64] (Eterna round: R96, puzzle: Same State NG 2)	17.1	18.9	31	–	–	–
GGAUGAUUGACAGGAUAUCAUUUGUAAAUUCGUUGAGAAGGGUCGAUUACUUACACGACGUGUUACAUGAGGAUCACCCAUGUU [SameState NG1 #4] (Eterna round: R96, puzzle: Same State NG 1)	117	101	185	–	–	–
GGAGCCGGCACUGAGGAUAUUCGUAUUAAAACAUGAGGAUCACCCAUGUAGGCCAGAAGGCCUUGGGAGAAGGCAGGUCGACUCG [Diqureveri - 2] (puzzle: Same State 2)	–	–	–	17.2	38.9	59.7
GCUAGAAUAAAUGCUAACAUGAGGAUCACCCAUGUAUGUUGGCAGGAUAUCGUAUGCAAAGCAUACGAGAAGGGCCAUACUAGC [Mat - Same State NG 3 - JL Mod - D27] (Eterna round: R96, puzzle: Same State NG 3)	17.3	20.4	29.5	–	–	–
AGUGAACAUGAGGAUCACCCAUGUGAGAGAAGUGUAGGAUAUGUGAGAGGCGGAGGAGGGACAGAAGGACAUGGAG [JR_SS!_Sub075] (puzzle: Same State 1)	–	–	–	38.7	42	48.5
GGUGACUUAAGAGGAUAUCCCGUAACAUUCGUCGAUACGAGACAUGAGGAUCACCCAUGUGAAAUGGAGAAGGCUUUCGCAAAG [Eternabot solution 48] (Eterna round: R96, puzzle: Same State NG 2)	52.7	40	58.2	–	–	–
AUACUCAUGUAAGGAUAUGCAGCCGAAACGGCUGCAGAAGGUACUAUAAUACAUGAGGAUCACCCAUGUCAAAAUUAUUUAGUU [Mat - Same State NG 1 - JL mod - D99] (Eterna round: R96, puzzle: Same State NG 1)	19.5	21.9	22.3	–	–	–

Source: the supplement of paper PMC9170038
